According to patent US20170240645A1 (Genentech, published 2017):
Substitutions are numbered along the chain they refer to. Each block holds one binder with its values, some of them ahead of it.

Key:
human PMEL17 [1] = target: T1, human PMEL17 (human, UniProt P40967 25-661); experiment: FACS screen of hybridoma clones
T1 construct: Untagged PMEL17 as it occurs on melanoma cell lines, normal human melanocytes, PC3 cells stably expressing PMEL17 cDNA, and in human tissue sections; also called Melanocyte protein PMEL17
T1 sequence: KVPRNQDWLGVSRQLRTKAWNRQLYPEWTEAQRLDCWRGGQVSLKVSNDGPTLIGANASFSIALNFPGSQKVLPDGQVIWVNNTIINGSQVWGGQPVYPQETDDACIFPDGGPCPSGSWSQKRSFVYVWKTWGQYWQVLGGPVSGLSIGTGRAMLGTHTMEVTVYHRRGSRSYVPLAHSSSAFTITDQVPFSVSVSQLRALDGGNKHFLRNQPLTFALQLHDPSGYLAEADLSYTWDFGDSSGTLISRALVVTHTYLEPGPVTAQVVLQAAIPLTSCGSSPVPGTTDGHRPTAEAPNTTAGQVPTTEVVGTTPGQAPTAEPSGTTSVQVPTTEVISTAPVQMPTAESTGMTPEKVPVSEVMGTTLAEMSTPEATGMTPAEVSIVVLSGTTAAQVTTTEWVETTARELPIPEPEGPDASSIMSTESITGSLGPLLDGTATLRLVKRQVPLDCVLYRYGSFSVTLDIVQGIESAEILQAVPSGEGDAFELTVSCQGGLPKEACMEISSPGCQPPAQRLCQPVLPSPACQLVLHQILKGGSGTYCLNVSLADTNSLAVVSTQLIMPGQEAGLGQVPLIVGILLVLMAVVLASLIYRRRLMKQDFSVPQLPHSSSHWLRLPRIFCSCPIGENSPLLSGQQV

[2] = target: T2, endothelin B receptor (ETBR) (UniProt P24530 27-442, limits assumed); experiment: cell-based or functional assay
T2 sequence (looked up): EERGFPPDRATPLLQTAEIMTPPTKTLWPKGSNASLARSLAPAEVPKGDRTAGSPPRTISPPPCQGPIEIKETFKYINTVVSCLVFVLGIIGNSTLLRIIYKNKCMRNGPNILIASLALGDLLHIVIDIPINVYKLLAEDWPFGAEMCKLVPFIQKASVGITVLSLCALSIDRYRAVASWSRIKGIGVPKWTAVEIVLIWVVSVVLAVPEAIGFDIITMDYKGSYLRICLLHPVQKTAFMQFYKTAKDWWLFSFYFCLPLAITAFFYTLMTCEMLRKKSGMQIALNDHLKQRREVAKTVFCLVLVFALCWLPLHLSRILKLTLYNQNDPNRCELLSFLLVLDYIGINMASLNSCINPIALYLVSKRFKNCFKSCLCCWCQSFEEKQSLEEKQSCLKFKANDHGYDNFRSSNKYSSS

human PMEL17 [3] = target: T1, human PMEL17; experiment: flow cytometry on parental and in vivo-derived resistant UACC-257X2.2 melanoma cells, detected with anti-human Alexa 488 conjugate; control peak is secondary antibody only
Description: Expression of ETBR and PMEL17 on the surface of the in vivo- and in vitro-derived resistant UACC-257X2.2 cells and the parental UACC-257X2.2 cells was then determined by FACS. Cells were stained with anti-ETBR antibody (hu5E9.v1 or ch5E9) or with anti-PMEL17 antibody (ch17A9), followed by an anti-human Alexa 488 antibody conjugate. […] Surface expression of PMEL17 was unchanged in the resistant cells as compared to the parental cells.

B1: 15F2 (antibody, V domains shown)
VH: QVQLKESGPGLVAPSQSLSITCTVSGFSLTKYGVHWVRQPPGKGLEWLGVIWAGGNTNYNSALMSRLSINKDNSKSQVFLKMNSLQTDDTAMYYCATFDVWGAGTTVTVSS
VL: DIVMTQAAPSVPVTPGESVSISCRSSKSLLHSNGNTFLYWFLQRPGQSPQLLIYRMSNLVSGVPDRFSGSGSGTAFTLRISRVEAEDVGFYYCMQHLEYPYTFGGGTKLELK
notes: Mouse monoclonal antibody from a hybridoma
binding result (human PMEL17 [1]): binds

B2: anti-ETBR-PNU (ch5E9 conjugated to MC-PNU-159682 through a non-cleavable linker) (antibody, human IgG1, kappa, V domains shown)
VH: QVQLLQSGAELARPGASVKLSCKASGYTFTSYWMQWVKQRPGQGLEWIGTIYPGDGDTSYAQKFKGKATLTTDKYSSTAYMQLSSLASEDSAVYYCARWGYAYDIDNWGQGTLVTVSS
VL: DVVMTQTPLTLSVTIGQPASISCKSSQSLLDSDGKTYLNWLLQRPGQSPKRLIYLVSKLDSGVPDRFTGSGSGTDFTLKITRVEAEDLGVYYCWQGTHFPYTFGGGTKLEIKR
modifications: MC-PNU-159682 on reduced cysteine residues of the antibody
EC50 of cell survival (CellTiter-Glo), in vitro derived resistant UACC-257X2.2 cells [2]: 0.0146 µg/mL
EC50 of cell survival (CellTiter-Glo), in vivo derived resistant UACC-257X2.2 cells [2]: 0.0143 µg/mL
EC50 of cell survival (CellTiter-Glo), parental UACC-257X2.2 cells [2]: 0.0042 µg/mL

Continued, values first:

binding result (human PMEL17 [3]): binds
B3: ch17A9 (antibody, human IgG1, kappa, V domains shown)
VH: EVQLQQSGPELVKPGASMKISCKSSGYSFTRYTMNWVKQSHGKNLEWIGVINPYNGGTVYNQKFKGKATLTVDKSSSTAYMELLSLTSEDSAVYYCARTDYDGYAMDYWGQGTSVTVSS
VL: DVQITQSPSYLAASPGETITINCRATKSISKYLAWYQEQPGKTNNLLIYSGSTLQSGIPSRFSGSGSGTDFTLTISSLEPEDFAMYYCQQHNEYPYTFGSGTKLEIKR
notes: also called chimeric 17A9

binding result (human PMEL17 [1]): binds
B4: 8G3 (antibody, V domains shown)
VH: B3 VH with K19R, S24A, R31G, I51Y, A79T, Y101S, D102G, Y108C
VL: DVQITQSPSYLDASPGETITINCRASKTISKYLAWYQEKPGKTNKLLIYSGSTLQSGIPSRFSGSGSGTDFTLTISSLEPEDFAMYYCQQHNEYPYTFGSGTKLEIK
notes: as for B1
